Results as given in the DeepSol protein solubility set.

Assay: soluble on expression in E. coli; label from the status in PepcDB or PDB records

Row | Sequence | soluble on expression in E. coli
1 | MNKLRKTIGRLEVKCKNADAGCIVTCPLAHRKGHQDSCPFELTACPNEGCTSQVPRGTLAEHRQHCQQGSQQRCPLGCGATLDPAERARHNCYRELHNAWSVRQERRRPLLLSLLRRVRWLDQATSVVRRELAELSNFLEEDTALLEGAPQEEAEAAPEGNVGAEVVGEPRANIPCK | soluble
2 | MGSQAIEAHREGAEVYHGAALCAEKAVELLAEIHMPLGLLPLAEMEEVGYNRATGFVWLRQKKAITHTFKQISRQVSFAAEVTAFVEDRRMKRVTGAKTKELLIWVSLSDMFIDKDDASKITFKTPTGLGRTYPVDAFAKEDDGKGKVPAAAAAANGKETAVNGKAK | soluble
3 | MMQEETFYSVRMRASMNGSHEDGGKHISGGERLIPFHEMKHTVNALLEKGLSHSRGKPDFMQIQFEEVHESIKTIQPLPVHTNEVSCPEEGQKLARLLLEKEGVSRDVIEKAYEQIPEWSDVRGAVLFDIHTGKRMDQTKEKGVRVSRMDWPDANFEKWALHSHVPAHSRIKEALALASKVSRHPAVVAELCWSDDPDYITGYVAGKKMGYQRITAMKEYGTEEGCRVFFIDGSNDVNTYIHDLEKQPILIEWEEDHDS | not soluble
4 | MGSDKIHHHHHHMGFWHSMSWKTEGIRVTAPVQWRQYDGMVSVLWEAESQAGASGYYLADDPRIMFFFNDVSSSVRISNQDNDLARNSRPMARAVYVPAGVPLWTGSRKTHSFSHLNLHLHKDRVLRFLAPSVGNSAAQTALRCPVELQNVAAIDALAKLLADEIKSPTKHAVYAESLIGSIIAGLLDIPTEREERAGGRLTQAQINKLVSHIDALGDYRMSVADMAAVVGLSESWFASVFKQTMGITPLQWQLAKRVELTKKLLGESDLPVASIAAQLGFADQAHLTKVFRQIVGETPAAWRRMRQFRQS | not soluble
5 | RETFKVLLQGVPDGIDLEGLKTDILSLPHIRSVHDIHLWTLDGESHVMTIHVVYCPDDFSSPQAVFDMKESVREKCSAHGIRHATIELDPEGCSCGMESC | not soluble
6 | MEKLRVGIVFGGKSAEHEVSLQSAKNIVDAIDKSRFDVVLLGIDKQGQWHVSDASNYLLNADDPAHIALRPSATSLAQVPGKHEHQLIDAQNGQPLPTVDVIFPIVHGTLGEDGSLQGMLRVANLPFVGSDVLASAACMDKDVTKRLLRDAGLNIAPFITLTRANRHNISFAEVESKLGLPLFVKPANQGSSVGVSKVTSEEQYAIAVDLAFEFDHKVIVEQGIKGREIECAVLGNDNPQASTCGEIVLTSDFYAYDTKYIDEDGAKVVVPAAIAPEINDKIRAIAVQAYQTLGCAGMARVDVFLTPENEVVINEINTLPGFTNISMYPKLWQASGLGYTDLITRLIELALERHAADNALKTTM | soluble
7 | MHLLLLHGFTSHPVLTLGPLSERLKEAGWEVRQPALPGHGTRPEDLLKVRFQDWLLAAEEAYLELPEPRGVVGLSMGGLLAAHLAARHPTKALVALAPAFALKNPLAPYLHWLIPRFPGPPSIEDPELRKRNPNYPYFPTRAVLELLALMRKTPEVLPRVKARALVVEAGKDRVVKGVDRYFALLGSPRKDHLVFPESGHDLLLDRDREEVARAVRDWLLASDNYLQ | soluble
8 | MSLVSVIILASGNSQRMGQNKLFLKYQGKTFLEHTLTLVNQLDVLERILVVSPENQPAFPLPKNIQLILNHQWQEGQSSSIRLGTEQARGAGYLYLPSDQPLLTPKMLQLVLDKCQRNKIVVPLQKDGCPSSPVLFGNQFRQELLTLTGEKGGRMIYERFPEAVQMLRIATPGRLKDIDTPEEYQKLIQETNSLEHHHHHH | not soluble
9 | LNDFAVRVAKSFSKVSEEKKSGSDIQGVFGIGSLENALYTASFAAGGGDYNNFLFNIKKGRADFSNFFNHNSKTFQSLRDIFNSFKPLIDQKGLISNKHFDTPVNNYAKFHQLAFYVSSTARFPYSFAKDNVKRLIIGKRELEVNPKSMFAIKKENGNNGNSNLLGKVALDNNKSIELYENNIPNGKTDAILIKN | soluble
10 | MSATVVDAVNAAPLSGSKEMSLEEPKKMTREDWRKKKELEEQRKLGNAPAEVDEEGKDINPHIPQYISSVPWYIDPSKRPTLKHQRPQPEKQKQFSSSGEWYKRGVKENSVITKYRKGACENCGAMTHKKKDCFERPRRVGAKFTGTNIAPDEHVQPQLMFDYDGKRDRWNGYNPEEHMKIVEEYAKVDLAKRTLKAQKLQEELASGKLVEQANSPKHQWGEEEPNSQTEKDHNSEDEDEDKYADDIDMPGQNFDSKRRITVRNLRIREDIAKYLRNLDPNSAYYDPKTRAMRENPYANAGKNPDEVSYAGDNFVRYTGDTISMAQTQLFAWEAYDKGSEVHLQADPTKLELLYKSFKVKKEDFKEQQKESILEKYGGQEHLDAPPAELLLAQTEDYVEYSRHGTVIKGQERAVACSKYEEDVKIHNHTHIWGSYWKEGRWGYKCCHSFFKYSYCTGEAGKEIVNSEECIINEITGEESVKKPQTLMELHQEKLKEEKKKKKKKKKKHRKSSSDSDDEEKKHEKLKKALNAEEARLLHVKETMQIDERKRPYNSMYETREPTEEEMEAYRMKRQRPDDPMASFLGQ | not soluble
11 | MTDSELMQLSEQVGQALKARGATVTTAESCTGGWVAKVITDIAGSSAWFERGFVTYSNEAKAQMIGVREETLAQHGAVSEPVVVEMAIGALKAARADYAVSISGIAGPDGGSEEKPVGTVWFAFATARGEGITRRECFSGDRDAVRRQATAYALQTLWQQFLQNT | not soluble
12 | MLKTISPLISPELLKVLAEMGHGDEIIFSDAHFPAHSMGPQVIRADGLLVSDLLQAIIPLFELDSYAPPLVMMAAVEGDTLDPEVERRYRNALSLQAPCPDIIRINRFAFYERAQKAFAIVITGERAKYGNILLKKGVTP | soluble
13 | MEFTLLGWPEDGHRLRLDYKQFAYAGKFVMTSTGKAVIGDDGVVAAAAFDADRTDPDTLCVRYITVRQDRQGDRLGARLLRFVRERATERGFEHVSIGVNNPFSYQAAYRAGFCFSGAESGMAELDLVWPGDRSTERYQAGLDLFRERDLSPDEESFLAAKADADPPTVLNEWAEQPSARTD | not soluble
14 | MGSDKIHHHHHHMDKAFPSGLAVGIFDHLDEDGPDIARQYEDRLMLAEACDHLGFYAYHLAEHHCTPHGRGPSPNLFLSSVAQRTRRLRVGPLVMLLALYHPLRAFEEICMLDQLSGGRLELGIGRGSLPIELGYFGIGSDAAPNHYAEASEILINALKGGTLSYQGRHFELNSVPLTLRTHQRPHPPTWIATNRPESAVWAAANGVNIACVGPSSSVRRITDAFRREHTSEADDQTPFLGLLRMVVIGRSETDARSLAAPAYERWLKSFKFLYDLNGMPTPPNLPLTFDAAIEKELCVVGTAASAGHALLEQLEAAGANYLLCQPAFGNLSLDASLYTATAIQSAIMARVG | not soluble
15 | MGSDKIHHHHHHMRVDHSTQPVAVLQEPSIVLVIQGVKRAYIGKDIFKFQQGQCLFISIAIPFDCDTLVEREPMLAIAIKFEPQMMAELATKMDKEHRPLIEDFDNKEIKLSCGLNIIEMNSVISDVALRLLNLLRSKQDTAILGEQVKRELIYRVLQAGGSDFIQNLSAIMSRSGVIYTICEIIQRDYYRNLTVQELAKQAGMSVSLFHQAFKKVTNYSPLQYIKITRLHKARDLILNNQMGVAEAAYEVGYVSASQFSREFKRLFGVPPKLSTN | not soluble
16 | MRIVVISLFLFSGVFGRASREAEKKQDTVACGELRDEYVRVCTGANTKRREQKDKDFCNAFENICFSIPEGEPDKAKDAEVTGPRTAAISPESAAAVRGETTGSAHKKTNFARFCKEFKNQYLYVCPDPFRFGQKAIVFCPVYSEKCHVPLPDKPVIPQRKSHRKRGPGGAVNQLCRSYQGFAMNYCNNPILTAQSQYRTACDKYWRFCGKFHQQG | not soluble
17 | SAADLGQIPDVDIDSDGVFKYVLIRVHLAEPSGDPAKECKEIVRGYKWAEYHADIYDKVSGELQRNGYDCECLGGGRISHQSQDRKIHVYGYSMGYGRAQHSVSTEKIKAKYPDYEVTWADDGY | soluble
18 | MSYKSSKYNLFIERKREVISFNTLRNIIAKCDIETKEILENETFNKLPPDLLNKMISEGIIVNKELNELNIIKLTRMMYYGQLLHYLSIGLTLVMTYSCNLRCPYCYEGDIKSKGGLLTREKIETILTFASAHAQGDKKPTISVSFYGGEPLLNWKGCEYTLQRLEEMKENKEIRDYSAGFVTNGTLINEDIVDAINNYNVYSMQITLDGPKEIHDKRRIKSNGEGTFDQIIENIKLLNRRIANKNFHLALRINVDKTNYKKIPELLDFLKDEGLGGIPISYGIVRGNLPYCSSNCGVYFSGSDLQKYLPYLWKEAYRRGFEVWTRPNLRFIYCGYDNPFGYVIDPELKVYPCWEMVGIEDYQIGEIQKDGTMKITPFYYDAKSRDPTEYDECKNCKLLPVCMGGCAMESIRKNGHPNGPGCDINKYIWKEGLKFYLMKKYPNLFSKETLIENLGRVPNRDEQTKNRIMFNT | not soluble
19 | MAHHHHHHMLRQSLLSLAKVYGAVPPLGAAQGHRLLHGKREREGSLFAVANDVKRDERLLRQQLNALLEEERMPMQARLQRSEAVSSHEAVPQTPLVDLPGVERRRDLPADPITRLFFQHKGDHALYYGTYDKPSVQDDDRVQIEKRVPRRREENLYTPIYDFCHRIREATEQRKRFVVVPSTIETRGCARVMHDHGLVAGFRDFHNDRAFAVELKYFQGDSTINVIEPCSYDGRTEFEWSPKMMRRLLNTHGIHNRLVVYICRTADNRIIDHIHAVKENIGGRGLMMVH | not soluble
20 | MTMDLRTGLAALALAAGLALPAAPALAEMSEITIARQPSIGHLPLMIMQERRLIETMAEAEGLGEVKVNYATFAGGSNMNDALLSNTIQFAAGGVPPLILLWSKTAGTSNEVKGVAAMNSMPLLMNVNREDIRSIEDFKPGDKIALPSVKVSVQAMVLQMAAAKIWGDENYGKLDPLTVSMSHPDGLAALLARQEVTAHFTASPAQDMALREPGVHTVLNSFDVMGGPVTFNVVWTTKAFHDDNPKLFDIFRRALAQAVEVVNEDPAEAVQVYLRQAGNATDPELLASILADPQVDYTVEPSGIDKYLDFMRRIGTVKDNGQPWEAMFFE | not soluble
21 | MSLNVDPNITKYVIKAKIVTDGVVEKPDVVGAIFGQTEGLLGEELDLRDLQKSGKIGRIEVEIDTKKGRTEGFVLIPSGLDQVESSILAAALETIDRIGPCKAKVDIEDVEDVRINKRDKVIQRAEELYKKMGTNGKSLSESIIQSVREEVEKKEILSYGEEHLPAGPAVGTSDSIIVVEGRNDVLNLLRYGIKNTIAVQGTSVPKTVKELSKARTVTLFVDGDHGGELIIKEMLQVADVDFIARAPPGTEVEELTYKQIVKALKYKAPVNQYLESHGMIEELKEFTEKNNKAIADMNVNTTVKEEPQQKKQEKEPKHVETAEVEAPVIEEINDINDPRFVRNKLNELFESKAVEIYDDAGNPIARYPVSDAAELMQSVKNGTTIISGGVISQRFVDIAFSMGVKSIYGMKIGHVTKKPDEIRVVTWEHMEGHHHHHH | soluble
22 | MHHHHHHLESSGDFSLLSSPINREKNGTEIVKFSIHPYKGTVIRLGEEILPFKVLEMDKNIALVEMAIPVYKDEKEIELKLSSPGFQNSSYRIRKPEELNEKLIALDKEGITHRFISRFKTGFQPKSVRFIDNTRLAIPLLEDEGMDVLDINSGQTVRLSPPEKYKKKLGFVETISIPEHNELWVSQMQANAVHVFDLKTLAYKATVDLTGKWSKILLYDPIRDLVYCSNWISEDISVIDRKTKLEIRKTDKIGLPRGLLLSKDGKELYIAQFSASNQESGGGRLGIYSMDKEKLIDTIGPPGNKRHIVSGNTENKIYVSDMCCSKIEVYDLKEKKVQKSIPVFDKPNTIALSPDGKYLYVSCRGPNHPTEGYLKKGLVLGKVYVIDTTTDTVKEFWEAGNQPTGLDVSPDNRYLVISDFLDHQIRVYRRDGF | soluble
